{
  "source": "patent US20230025129A1",
  "about": "(KYMAB, published 2023)",
  "binders": {"B1": {"name": "NORI-013 (antibody, human IgG4 S228P, lambda, V domains shown)", "VH": "EVQLVESGGGLIQAGRSLRLSCAASGFTFDEHVIYWVRQIPGKGLEWISSISWKSDIIAYADSVKGRFTISRDNAKNALYLQMNSLRAEDTALYYCAREKDGDFYYYYFAMDVWGQGTTVTVSS", "VL": "QSALTQPPSASGSPGQSVTLSCTGTSSDVGYYNYVSWYLQHPGKAPKLMIYEVSKRPSGVPDRFSGSKSANTASLTVSGLQAEDEADYYCSSYAGSNKVVFGGGTKVTVLG", "notes": "human IgG4PE, lambda"}, "B2": {"name": "NORI-014 (antibody, human IgG4 S228P, lambda, V domains shown)", "VH": "B1 VH with I34M, S52T", "VL": "B1 VL", "notes": "human IgG4PE, lambda"}, "B3": {"name": "NORI-008 (antibody, human IgG4 S228P, kappa, V domains shown)", "VH": "QVQLQESGPGLVKPSETLSLTCSVSGGSVSSGRYYWTWIRQPPGKGLEWIGYISNSGNTNYNPSLKSRVTISLDTSKKQFSLSLSAVTAADTAVYYCARGFIYDYWFDPWGQGSLVTVSS", "VL": "DSQMTQSPSSLSASVGDRVTITCQASQDIDNYLNWYQQRPGKAPKLLIYDASKLETGVPSRFSGSGSGTDFTFTISSLQPEDFATYYCQQYGNLPITFGQGTRLDIKR", "notes": "human IgG4PE, kappa, in the in vitro assays; a mouse IgG1 format was used in one in vivo study only; also called NORI-008 hulgG4PE; NORI-008 IgG"}, "B4": {"name": "NORI-006 (antibody, human IgG4 S228P, kappa, V domains shown)", "VH": "EVQLVESGGGLIKPGRSLRLSCTGSGFTFGDFGLSWFRQAPGKGLEWISFIRSKPYGGTTDYAASVKGRFTISRDDSKNVAYLQMNSLKTEDTAVYYCARNEILTGYYIFDYWGQGTLVTVSS", "VL": "DIQMTQSPSSLSASLGDRVTITCQASQDINNYLNWYQVQPGKAPKLLIFDASILETGVPSRFSGSGSGTDFSFTISSLQPEDIATYYCQQYDNLPLTFGGGTKVDFKR", "notes": "human IgG4PE, kappa"}},
  "note": "Residue numbers refer to the chain shown, from its start.",
  "data": [
    {"target": "T1, mouse matriptase-2 ECD protein his tag (mouse, UniProt Q9DBI0 80-811)", "T1 sequence": "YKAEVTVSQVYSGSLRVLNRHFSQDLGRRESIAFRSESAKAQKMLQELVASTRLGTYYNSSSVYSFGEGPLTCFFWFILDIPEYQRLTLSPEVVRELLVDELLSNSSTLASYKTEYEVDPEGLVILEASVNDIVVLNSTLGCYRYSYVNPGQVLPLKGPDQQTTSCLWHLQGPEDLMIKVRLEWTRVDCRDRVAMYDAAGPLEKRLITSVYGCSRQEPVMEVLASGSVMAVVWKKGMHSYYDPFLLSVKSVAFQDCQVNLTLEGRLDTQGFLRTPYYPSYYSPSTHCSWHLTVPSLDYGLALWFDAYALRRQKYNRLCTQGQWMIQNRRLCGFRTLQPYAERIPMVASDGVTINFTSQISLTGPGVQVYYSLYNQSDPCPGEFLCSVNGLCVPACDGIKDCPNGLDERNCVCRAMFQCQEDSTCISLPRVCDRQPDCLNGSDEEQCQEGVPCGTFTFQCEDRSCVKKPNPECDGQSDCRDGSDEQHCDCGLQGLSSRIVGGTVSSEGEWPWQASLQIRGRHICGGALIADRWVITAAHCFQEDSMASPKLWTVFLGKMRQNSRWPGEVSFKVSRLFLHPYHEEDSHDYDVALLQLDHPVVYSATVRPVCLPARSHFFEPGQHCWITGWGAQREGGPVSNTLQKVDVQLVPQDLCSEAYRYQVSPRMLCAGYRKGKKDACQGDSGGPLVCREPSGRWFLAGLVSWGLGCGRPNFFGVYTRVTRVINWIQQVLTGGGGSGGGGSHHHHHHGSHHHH", "assay": "cell-based or functional assay", "units": {"Inhibition enzymatic activity mouse MTP2 protein (IC50)": "nM"}, "values": [
      {"binder": "B1", "Inhibition enzymatic activity mouse MTP2 protein (IC50)": 3.59},
      {"binder": "B2", "Inhibition enzymatic activity mouse MTP2 protein (IC50)": 8.5},
      {"binder": "B3", "Inhibition enzymatic activity mouse MTP2 protein (IC50)": 1.5},
      {"binder": "B4", "Inhibition enzymatic activity mouse MTP2 protein (IC50)": 22.9}
    ]},
    {"target": "T2, human MTP-2 expressed on HEK293 cells (human, UniProt Q8IU80 1-811)", "T2 sequence": "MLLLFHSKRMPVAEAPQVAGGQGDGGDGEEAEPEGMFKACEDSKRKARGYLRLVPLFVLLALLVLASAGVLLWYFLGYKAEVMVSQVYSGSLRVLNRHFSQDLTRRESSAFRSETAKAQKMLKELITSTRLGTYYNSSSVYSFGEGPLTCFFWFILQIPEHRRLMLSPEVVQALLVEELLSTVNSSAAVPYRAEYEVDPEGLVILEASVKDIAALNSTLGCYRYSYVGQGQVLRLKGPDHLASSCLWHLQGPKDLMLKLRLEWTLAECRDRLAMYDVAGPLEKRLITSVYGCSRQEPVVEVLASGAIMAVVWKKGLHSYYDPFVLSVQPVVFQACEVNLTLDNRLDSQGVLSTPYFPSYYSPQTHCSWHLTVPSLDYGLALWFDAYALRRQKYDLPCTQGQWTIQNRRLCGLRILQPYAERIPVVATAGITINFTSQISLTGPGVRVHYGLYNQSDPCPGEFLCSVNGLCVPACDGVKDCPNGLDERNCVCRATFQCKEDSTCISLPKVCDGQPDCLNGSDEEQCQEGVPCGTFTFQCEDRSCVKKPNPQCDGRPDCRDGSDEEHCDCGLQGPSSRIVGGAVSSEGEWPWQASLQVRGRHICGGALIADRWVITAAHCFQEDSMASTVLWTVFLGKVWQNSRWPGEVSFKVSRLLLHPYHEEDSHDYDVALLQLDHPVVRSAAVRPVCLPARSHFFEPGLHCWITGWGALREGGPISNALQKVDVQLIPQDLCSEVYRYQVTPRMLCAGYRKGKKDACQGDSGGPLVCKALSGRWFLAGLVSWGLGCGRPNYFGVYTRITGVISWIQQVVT", "assay": "cell-based or functional assay", "units": {"Inhibition enzymatic activity human MTP2 on cells (IC50)": "nM"}, "values": [
      {"binder": "B1", "Inhibition enzymatic activity human MTP2 on cells (IC50)": 0.619},
      {"binder": "B2", "Inhibition enzymatic activity human MTP2 on cells (IC50)": 0.532},
      {"binder": "B3", "Inhibition enzymatic activity human MTP2 on cells (IC50)": 0.0839}
    ]},
    {"target": "T3, human matriptase-2 ECD protein his tag (human, UniProt Q8IU80 78-811)", "T3 sequence": "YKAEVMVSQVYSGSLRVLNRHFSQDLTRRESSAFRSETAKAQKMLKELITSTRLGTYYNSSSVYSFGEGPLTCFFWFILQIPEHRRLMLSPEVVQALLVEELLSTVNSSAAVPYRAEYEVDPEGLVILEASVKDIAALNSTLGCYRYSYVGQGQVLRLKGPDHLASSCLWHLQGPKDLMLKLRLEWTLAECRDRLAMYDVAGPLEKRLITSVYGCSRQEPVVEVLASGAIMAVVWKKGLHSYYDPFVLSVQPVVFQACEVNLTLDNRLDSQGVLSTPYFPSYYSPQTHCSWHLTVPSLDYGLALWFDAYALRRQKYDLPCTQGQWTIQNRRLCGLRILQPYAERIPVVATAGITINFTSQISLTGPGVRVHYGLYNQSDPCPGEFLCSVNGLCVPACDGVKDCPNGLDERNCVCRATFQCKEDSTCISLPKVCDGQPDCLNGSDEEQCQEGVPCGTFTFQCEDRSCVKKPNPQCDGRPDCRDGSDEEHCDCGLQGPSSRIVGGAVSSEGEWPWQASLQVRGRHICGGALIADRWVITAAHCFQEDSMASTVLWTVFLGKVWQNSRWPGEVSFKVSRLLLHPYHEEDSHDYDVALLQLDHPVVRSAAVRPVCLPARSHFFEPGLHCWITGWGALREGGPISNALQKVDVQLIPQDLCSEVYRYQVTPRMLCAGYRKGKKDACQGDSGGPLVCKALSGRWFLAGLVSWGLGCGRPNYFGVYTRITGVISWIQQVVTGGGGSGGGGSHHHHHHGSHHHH", "assay": "cell-based or functional assay", "units": {"Inhibition enzymatic activity human MTP2 protein (IC50)": "nM"}, "values": [
      {"binder": "B1", "Inhibition enzymatic activity human MTP2 protein (IC50)": 5.63},
      {"binder": "B2", "Inhibition enzymatic activity human MTP2 protein (IC50)": 11.8},
      {"binder": "B3", "Inhibition enzymatic activity human MTP2 protein (IC50)": 8.28},
      {"binder": "B4", "Inhibition enzymatic activity human MTP2 protein (IC50)": 8.8}
    ]}
  ]
}
